Measured values: patent publication US20210361735A1, “MINIGASTRIN DERIVATES, IN PARTICULAR FOR USE IN CCK2 RECEPTOR POSITIVE TUMOUR DIAGNOSIS AND/OR TREATMENT” (PAUL SCHERRER INSTITUT, priority 2017, published 2021)
Numbered stars: 1 amine (or outer) side, 2 acyl side, 3 side chain; on linkers, the order of the positions; unused ones are H or OH. Square brackets hold non-standard residues; d marks the D form. Peptide text beside a SMILES is read from it. * marks the point of attachment. X1 = CCCC[C@@H](C(=O)[*:2])n1cc([C@H](Cc2c[nH]c3ccccc23)N[*:1])nn1; X4 = C[C@H](N[*:1])c1cn([C@@H](Cc2ccc(O)cc2)C(=O)[*:2])nn1; DOTA = O=C(O)CN1CCN(CC(=O)O)CCN(CC(=O)*)CCN(CC(=O)O)CC1; X3 = O=C([C@H](Cc1c[nH]c2ccccc12)n1cc(CN[*:1])nn1)[*:2]; X2 = O=C(Cn1cc([C@H](Cc2ccc(O)cc2)N[*:1])nn1)[*:2]; Nle = CCCC[C@H](N)C(=O)O

What was measured:
Fig. 4 = experiment: Fig. 4
Method: (§1) Table printed on a drawing sheet, Fig. 4
(§2) Footnotes: Significant improvement / Significant drawback
First reader's note: Light grey shading of a cell marks a significant improvement and dark grey shading a significant drawback; logD was measured at pH 7.4.

CCK2R = CCK2R (Homo sapiens, UniProt P32239); experiment: IC50 (nM); design: Human Medullary Thyroid Cancer cells (MZ-CRCl) expressing the CCK2R; endogenous in cells; host or cells: MZ-CRC1 human medullary thyroid cancer cells
Sequence of CCK2R (P32239 whole entry, looked up): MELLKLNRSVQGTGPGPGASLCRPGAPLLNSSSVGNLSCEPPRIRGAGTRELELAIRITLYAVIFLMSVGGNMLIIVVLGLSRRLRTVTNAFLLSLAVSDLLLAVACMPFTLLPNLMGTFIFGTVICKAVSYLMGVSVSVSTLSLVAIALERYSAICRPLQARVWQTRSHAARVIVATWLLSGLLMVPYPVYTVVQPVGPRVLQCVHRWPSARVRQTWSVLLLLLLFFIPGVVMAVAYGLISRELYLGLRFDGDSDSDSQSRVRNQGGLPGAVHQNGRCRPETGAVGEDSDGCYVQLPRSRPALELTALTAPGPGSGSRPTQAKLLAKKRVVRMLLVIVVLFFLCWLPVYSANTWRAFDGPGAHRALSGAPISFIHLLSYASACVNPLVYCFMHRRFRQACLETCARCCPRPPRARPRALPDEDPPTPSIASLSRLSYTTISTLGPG
Method: as §1
Head of the field: IC50 (nM)
as §2
First copying reader's note: Light grey shading of a cell marks a significant improvement and dark grey shading a significant drawback; logD was measured at pH 7.4.
Where the first naming reader finds the target: patent_title: MINIGASTRIN DERIVATES, IN […] FOR USE IN CCK2 RECEPTOR POSITIVE TUMOUR DIAGNOSIS AND/OR TREATMENT

Blood plasma stability = assay type: in vitro ADME; conditions: human blood plasma, 37° C.; for at least more than 2 hours; FIG. 3
Method: The ^177Lu-labelled compounds were diluted with 0.9% NaCl to a concentration of 3.75 μM and incubated (375 pmol, 100 μL, 7.5-12 MBq) in nitrogen-flushed fresh human blood plasma (1.5 mL) at 37° C. At different time points (0.5, 1, 2, 4, 6 and 24 h) aliquots (75 μL) were taken and the proteins were precipitated in CH3CN (100 μL) and centrifuged (2 min, 14680 rpm, rt). The supernatant (75 μL) was diluted with water (75 μL) and analyzed by γ-HPLC.

[1] = test system: CCK-2 receptor positive tumours; conditions: in vivo; cited from earlier work

| Compound | Plasma half live (Fig. 4) | other results |
| --- | --- | --- |
| CCCC[C@@H](C(=O)N[C@@H](CC(=O)O)C(=O)N[C@@H](Cc1ccccc1)C(N)=O)n1cc([C@H](Cc2c[nH]c3ccccc23)NC(=O)CNC(=O)[C@H](Cc2ccc(O)cc2)NC(=O)[C@H](C)NC(=O)[C@@H](CCC(=O)O)NC(=O)CN2CCN(CC(=O)O)CCN(CC(=O)O)CCN(CC(=O)O)CC2)nn1 [DOTA[Nle15, Trp14-(Tz)-Nle15]-MG11] ({DOTA}-[dE]AYG[X1]DF-NH2) | >24 h | – |
| CCCC[C@H](NC(=O)[C@H](Cc1c[nH]c2ccccc12)NC(=O)CNC(=O)[C@H](Cc1ccc(O)cc1)n1cc([C@H](C)NC(=O)[C@@H](CCC(=O)O)NC(=O)CN2CCN(CC(=O)O)CCN(CC(=O)O)CCN(CC(=O)O)CC2)nn1)C(=O)N[C@@H](CC(=O)O)C(=O)N[C@@H](Cc1ccccc1)C(N)=O [DOTA[Nle15, Ala11-(Tz)-Tyr12]-MG11] ({DOTA}-[dE][X4]GW[Nle]DF-NH2) | 16.7 h | – |
| CCCC[C@H](NC(=O)[C@H](Cc1c[nH]c2ccccc12)n1cc(CNC(=O)[C@H](Cc2ccc(O)cc2)NC(=O)[C@H](C)NC(=O)[C@@H](CCC(=O)O)NC(=O)CN2CCN(CC(=O)O)CCN(CC(=O)O)CCN(CC(=O)O)CC2)nn1)C(=O)N[C@@H](CC(=O)O)C(=O)N[C@@H](Cc1ccccc1)C(N)=O [DOTA[Nle15, Gly13-(Tz)-Trp14]-MG11] ({DOTA}-[dE]AY[X3][Nle]DF-NH2) | 4.3 h | – |
| CCCC[C@H](NC(=O)[C@H](Cc1c[nH]c2ccccc12)NC(=O)CNC(=O)[C@H](Cc1ccc(O)cc1)NC(=O)[C@H](C)NC(=O)[C@@H](CCC(=O)O)NC(=O)CN1CCN(CC(=O)O)CCN(CC(=O)O)CCN(CC(=O)O)CC1)C(=O)N[C@@H](CC(=O)O)C(=O)N[C@@H](Cc1ccccc1)C(N)=O [DOTA[Nle15]-MG11, DOTA-DGlu-Ala-Tyr-Gly-Trp-Nle-Asp-Phe-NH2] ({DOTA}-[dE]AYGW[Nle]DF-NH2) | – | IC50 (CCK2R): 16.1 nM |
| CCCC[C@H](NC(=O)[C@H](Cc1c[nH]c2ccccc12)NC(=O)Cn1cc([C@H](Cc2ccc(O)cc2)NC(=O)[C@H](C)NC(=O)[C@@H](CCC(=O)O)NC(=O)CN2CCN(CC(=O)O)CCN(CC(=O)O)CCN(CC(=O)O)CC2)nn1)C(=O)N[C@@H](CC(=O)O)C(=O)N[C@@H](Cc1ccccc1)C(N)=O [DOTA[Nle15, Tyr^12-(Tz)-Gly^13]-MG11, DOTA[Nle15, Tyr12-ψ[Tz]-Gly13]-MG11] ({DOTA}-[dE]A[X2]W[Nle]DF-NH2) | – | peptides remaining stable in plasma (Blood plasma stability): more than 60% |
| DOTA-DGlu-DGlu-DGlu-DGlu-DGlu-DGlu-Ala-Tyr-Gly-Trp-Nle-Asp-Phe-NH2 [PP-F11N] | – | tumour-kidney-ratio [1]: excellent |
